{
  "source": "the nanobody polyreactivity screen of Harvey et al. (2022)",
  "data": [
    {"assay": "yeast display, Sf9 membrane polyspecificity reagent, FACS + sequencing; frameworks hold sequencing errors", "procedure,_shortened": "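Using colony PCR, genes from sorted yeast display clones were amplified, then sequenced on MiSeq at 2 × 250 and filtered by CDR length. The clones had been stained with 10% biotinylated, detergent-solubilized Sf9 membrane reagent for 1 hour at 4 °C and sorted by FACS into low and high (top ~1%) gates on anti-HA and streptavidin fluorescence. Polyreactivity labels come from the gate of origin.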", "values": [
      {"sequence": "QVQLVESGGGLVQAGGRLRLSCAASGRTFAVYDMGWYIQAPGKERELVAAITYGGGRTYYADSVKGRFTISRDYAKNTVYLQMISLKPEDTSVYYCAADYYGTDYDYWGQGTQVTVSS", "polyreactivity (PSR sort gate)": "low polyreactivity"},
      {"sequence": "QVQLVESGGGLVQAGGRLRLSCAASGRTFEGYAMAWYRQAPGKERELVAAISGSSGSTYYADSVKGRFTISRDNAKNTVYLQMNSLKPEDTAVYYCNADYDWPGGSDYWGQGTQVTVSS", "polyreactivity (PSR sort gate)": "low polyreactivity"},
      {"sequence": "QVQLVESGGGLVQAGGRLRLSCAASGRTFIPYAMGWYRQAPGNERELVAAIRNGGSTNYADSVKGRFTISRDIAKNTVYLQMNSLKPEDTAVYYCNADLPVYVDYINGCYGYWGQGTQVTVSS", "polyreactivity (PSR sort gate)": "low polyreactivity"},
      {"sequence": "QVQLVESGGGLVQAGGRLRLSCAASGRTFPGYDMGWYRQAPGKERELVAAITRSGGSTYYADSVKGRFTISRDNAKNTVYLQMNSLKPEDTAVYYCATERHFYYSTFYYWGQGTQVTVSS", "polyreactivity (PSR sort gate)": "high polyreactivity"},
      {"sequence": "QVQLVESGGGLVQAGGRLRLSCAASGRTFYYYAMGWYRQAPGKERELVASITYRGTRTNYADSVKGRFTISRDNAKNTVYLQMNILKPEDTAVYSCNAEVYTGYGYWGQGTQVTVSS", "polyreactivity (PSR sort gate)": "high polyreactivity"},
      {"sequence": "QVQLVESGGGLVQAGGRLRLSCAASGRTIDHYAMGWYRQAPGKERELVAAISTTGGSTYYADSVKGRFTISRDNAKNTVYLQMNSLKPEDTAVYYCAARGLRTGGYWGQGTQVTVSS", "polyreactivity (PSR sort gate)": "high polyreactivity"},
      {"sequence": "QVQLVESGGGLVQAGGRLRLSCAASGRTIGVYAMGWYRQAPGKERELVAAISWSGGTTYYADSVKGRFTISRDNAKNTVYLQMNSLKPEDTGVYYCAADGEYPHSEDFEYWGQGTQVTVSS", "polyreactivity (PSR sort gate)": "low polyreactivity"},
      {"sequence": "QVQLVESGGGLVQAGGRLRLSCAASGRTLGANAMGWYRQAPGKERELVAAITDSGGSTYYADSVKGRFTISRDNAKNTVYLQMNSLKPEDTAVYYCAAKQAYSSTYVWPIFDYWGQGTQVTVSS", "polyreactivity (PSR sort gate)": "low polyreactivity"},
      {"sequence": "QVQLVESGGGLVQAGGRLRLSCAASGRTLYRYVMVWYRQAPWKERELVAAISATAGSTYYADSVKGRFTISRDNAKNTVYLQMNSLTPEDTAVYYCAAEGYTLWYWLEFEYWGQGTQVTVSS", "polyreactivity (PSR sort gate)": "high polyreactivity"},
      {"sequence": "QVQLVESGGGLVQAGGRLRLSCAASGSIFAGYVMGWYRQAPGKERELVAAISKSGGSTYYADSVKGRFTISRDNAKNTVSLQMNSLKPEDTAVYYSAKDHYYVDYDYWGQGTQVTVSS", "polyreactivity (PSR sort gate)": "high polyreactivity"},
      {"sequence": "QVQLVESGGGLVQAGGRLRLSCAASGSIFDYNGMGWYRQAPGKERELVATITLSTARTYYADSVKGRFTISRDNAKNTVYLQMNSLKPEDTAVYYCATRYPKFRRRNYWGQGTQVTVSS", "polyreactivity (PSR sort gate)": "high polyreactivity"},
      {"sequence": "QVQLVESGGGLVQAGGRLRLSCAASGSIFFAYAMGWYRQAPGKERELVAAITSGVSTNYADSVKGRFTISRDNAKNTVYLQMNSLKPEDTAVYYCNADFDYGFDAGVAVQVVIHDYWGQGTQVTVSS", "polyreactivity (PSR sort gate)": "low polyreactivity"},
      {"sequence": "QVQLVESGGGLVQAGGRLRLSCAASGSIFGRNAMGWYRAAPGKERELVAAITGSTYYADSVKGRFTSSRDNAKNTVYLQMNSLKPEDTAVYYCNADYDVGWTYDTEYNYWGQGTQVTVSS", "polyreactivity (PSR sort gate)": "low polyreactivity"},
      {"sequence": "QVQLVESGGGLVQAGGRLRLSCAASGSIFIGYAMGWYRPAPGKERELVAAISGSGSSTYYADSVKGRFTISRDNAKNTVYLQMNSLKPEDTAVYYCAARTYSRFTASTYYYWGQGTQVTVSS", "polyreactivity (PSR sort gate)": "high polyreactivity"},
      {"sequence": "QVQLVESGGGLVQAGGRLRLSCAASGSIFIYYAMGWYRQAPGKERELVAAISNGGSTNYADSVKGRFTISRDNAKNTVYLQMNSLKPEDTAVYYCNTDWGYFHGVRAYLGYGYWGQGTQVTVSS", "polyreactivity (PSR sort gate)": "low polyreactivity"},
      {"sequence": "QVQLVESGGGLVQAGGRLRLSCAASGSIFPANAMGGSRQAPGKERELVAGISERGSSTYYADSVKGRFTISRDNAKNTVYLQMNSLKPEDTAVYYCAADDVGRYWSSTHNWARGDYWGQGTQVTVSS", "polyreactivity (PSR sort gate)": "low polyreactivity"},
      {"sequence": "QVQLVESGGGLVQAGGRLRLSCAASGSIFQSYAMGWYRQAPGKERELVAVITGGGGSTYYADSVKGRFTISRDNAKNTVYLQMNSLKPEDTAVYYCAARPVTSYAYGSWGQGTQVTVSS", "polyreactivity (PSR sort gate)": "low polyreactivity"},
      {"sequence": "QVQLVESGGGLVQAGGRLRLSCAASGSIFRFYAMGWYRQAPGKERELVASISSGGSTYYADSVKGRFTISRDNAKNTVYLKLNSLKAEDTAVYYCAHGFAQYGVDLDPGDYDYWGQGTQVTVSS", "polyreactivity (PSR sort gate)": "low polyreactivity"},
      {"sequence": "QVQLVESGGGLVQAGGRLRLSCAASGSIFRRYAMGWYRQEPGKERELVAVITTDGSTYYADSVKGRFTISRDNAKNTVYLQMNSLKPEDTAVYYCAAEVYVIGDSGYDYWGQGTQVTVSS", "polyreactivity (PSR sort gate)": "low polyreactivity"},
      {"sequence": "QVQLVESGGGLVQAGGRLRLSCAASGSIFSRNAMGWDRQAPGQERELVAAITRSGGRTYYADSVKGRCTLSRDNAKTTVYLQMNSLKPEDTAVYYCNALASQEYDYWGQGTQVTVSS", "polyreactivity (PSR sort gate)": "high polyreactivity"},
      {"sequence": "QVQLVESGGGLVQAGGRLRLSCAASGSIFSRYAMGWYRQAPGKERELVAAITSRGSGTNYADSVKGRFTISRDNAKNTVYLQMNSLKPEDTAVYYCNAARLPRLGWPTPYLYDYWGQGTQVTVSS", "polyreactivity (PSR sort gate)": "high polyreactivity"},
      {"sequence": "QVQLVESGGGLVQAGGRLRLSCAASGSIFSYNAMGWYRQAPGKEREVVATISWSGGSTYYADSVKGPFTISRDYAKNTVFLQMNSLKPEDTGGYSCAARKYGQRYRRDYWGQGTQVTVSS", "polyreactivity (PSR sort gate)": "low polyreactivity"},
      {"sequence": "QVQLVESGGGLVQAGGRLRLSCAASGSIFTYYVMGWYRQAPGKERELVAAITISGGSTYYADSVKGRFTISRDNAKNTVYLQMNRLNPEDTAVYYCAAEEVYYEADGFQNSYDYWGQGTQVTVSS", "polyreactivity (PSR sort gate)": "high polyreactivity"},
      {"sequence": "QVQLVESGGGLVQAGGRLRLSCAASGSIFVPNAMGWYRQALGKDRELVAAITYSGVDTYYADSVMGRFTISRDNAKNTVYLQMNSLKPEDTAVYYCAADNGRVGYDYWGQGTQVSVSS", "polyreactivity (PSR sort gate)": "low polyreactivity"},
      {"sequence": "QVQLVESGGGLVQAGGRLRLSCAASGSIFVYNALGWYRQAPGKQRELVAGITFIGGSTYYAESVKGRFTISRDNAKNTVYVQMNSRKPEDTAVYYCNKFPVSPPSYYWGQGTQVTVSS", "polyreactivity (PSR sort gate)": "low polyreactivity"},
      {"sequence": "QVQLVESGGGLVQAGGRLRLSCAASGSIFYYNVMGWYRQAHGKQRELVAAITWSGGTTYYADSVKGRFTISRDNAKNTVYLQMNSLKPEDTAVYYCIAASPYSWGYRRGYLGQGTQVTVSS", "polyreactivity (PSR sort gate)": "high polyreactivity"},
      {"sequence": "QVQLVESGGGLVQAGGRLRLSCAASGSIISYYAMGWYRQAPGKERELVATITSSGSTYADSVKGRFTISRDNAKNTVYLQMNSLKPEDTAVYYCNADSGYSEYWGVDVAYDYWGQGTQVTVSS", "polyreactivity (PSR sort gate)": "low polyreactivity"},
      {"sequence": "QVQLVESGGGLVQAGGRLRLSCAASGSILNFYAMGWYRQAPGKEREFVASISWDGASTYYADSVKGRFTISRDNAKNTVYLPMNSLKPEDTAVYYCAATRYYSFWGQGTQVTVSS", "polyreactivity (PSR sort gate)": "low polyreactivity"},
      {"sequence": "QVQLVESGGGLVQAGGRLRLSCAASGSNFGLNALGWYRQAPGKERELVAAINSDADTYYADSVKGRFTISRDNAKNTVYLQMNSQKPADTAVYYCAADYYWDPFDSNFGHVPQEYESWGQGTQVTVSS", "polyreactivity (PSR sort gate)": "low polyreactivity"},
      {"sequence": "QVQLVESGGGLVQAGGRLRLSCAASGSTFDPNAEGWYRPAPGKARELVAVIDSGDGTTYYADSVKGRVTISRDKAKNTVYLQMNSLKPEDTAVYYCAAEFHWWYAGYDYGYWGQGTQVTVSS", "polyreactivity (PSR sort gate)": "low polyreactivity"}
    ]}
  ]
}
